From paper PMC2793008 come the findings set out here.

This experiment has as its target integrin alpha2beta1 (human (endogenous in cord blood derived megakaryocytes)) (UniProt P17301).
UniProt P17301, sequence (P17301 30-1181, chain 1 of 2): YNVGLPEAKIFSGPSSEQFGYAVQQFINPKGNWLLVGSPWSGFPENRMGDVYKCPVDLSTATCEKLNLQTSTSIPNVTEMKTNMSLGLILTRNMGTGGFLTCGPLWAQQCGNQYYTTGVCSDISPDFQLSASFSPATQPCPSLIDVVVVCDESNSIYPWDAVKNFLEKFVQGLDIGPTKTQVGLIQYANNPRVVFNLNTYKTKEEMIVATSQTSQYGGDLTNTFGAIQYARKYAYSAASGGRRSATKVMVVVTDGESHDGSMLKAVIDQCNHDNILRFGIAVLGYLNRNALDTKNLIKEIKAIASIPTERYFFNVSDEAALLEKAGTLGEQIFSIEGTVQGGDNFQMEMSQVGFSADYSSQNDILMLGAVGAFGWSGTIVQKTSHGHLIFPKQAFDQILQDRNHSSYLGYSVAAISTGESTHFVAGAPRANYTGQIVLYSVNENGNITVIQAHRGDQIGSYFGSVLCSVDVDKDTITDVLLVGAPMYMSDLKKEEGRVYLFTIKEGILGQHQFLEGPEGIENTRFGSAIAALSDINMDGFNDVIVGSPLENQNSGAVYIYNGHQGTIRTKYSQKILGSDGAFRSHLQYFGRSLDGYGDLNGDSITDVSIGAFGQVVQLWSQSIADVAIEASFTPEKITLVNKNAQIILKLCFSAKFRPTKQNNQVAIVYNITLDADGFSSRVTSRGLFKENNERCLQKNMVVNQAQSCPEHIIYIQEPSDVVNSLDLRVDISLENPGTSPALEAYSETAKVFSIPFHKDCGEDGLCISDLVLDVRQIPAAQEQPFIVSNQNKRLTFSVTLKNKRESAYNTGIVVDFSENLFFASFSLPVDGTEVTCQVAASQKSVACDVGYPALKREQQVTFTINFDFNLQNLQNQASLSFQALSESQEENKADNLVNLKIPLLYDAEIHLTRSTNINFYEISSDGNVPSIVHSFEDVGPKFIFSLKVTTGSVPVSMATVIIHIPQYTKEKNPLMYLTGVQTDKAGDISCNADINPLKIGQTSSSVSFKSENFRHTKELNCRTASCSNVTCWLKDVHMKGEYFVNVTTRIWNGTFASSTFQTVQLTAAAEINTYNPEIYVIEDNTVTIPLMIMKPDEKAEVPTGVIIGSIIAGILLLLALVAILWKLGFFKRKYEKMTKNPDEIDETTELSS
UniProt P17301, sequence (P05556 21-798, chain 2 of 2, further chain): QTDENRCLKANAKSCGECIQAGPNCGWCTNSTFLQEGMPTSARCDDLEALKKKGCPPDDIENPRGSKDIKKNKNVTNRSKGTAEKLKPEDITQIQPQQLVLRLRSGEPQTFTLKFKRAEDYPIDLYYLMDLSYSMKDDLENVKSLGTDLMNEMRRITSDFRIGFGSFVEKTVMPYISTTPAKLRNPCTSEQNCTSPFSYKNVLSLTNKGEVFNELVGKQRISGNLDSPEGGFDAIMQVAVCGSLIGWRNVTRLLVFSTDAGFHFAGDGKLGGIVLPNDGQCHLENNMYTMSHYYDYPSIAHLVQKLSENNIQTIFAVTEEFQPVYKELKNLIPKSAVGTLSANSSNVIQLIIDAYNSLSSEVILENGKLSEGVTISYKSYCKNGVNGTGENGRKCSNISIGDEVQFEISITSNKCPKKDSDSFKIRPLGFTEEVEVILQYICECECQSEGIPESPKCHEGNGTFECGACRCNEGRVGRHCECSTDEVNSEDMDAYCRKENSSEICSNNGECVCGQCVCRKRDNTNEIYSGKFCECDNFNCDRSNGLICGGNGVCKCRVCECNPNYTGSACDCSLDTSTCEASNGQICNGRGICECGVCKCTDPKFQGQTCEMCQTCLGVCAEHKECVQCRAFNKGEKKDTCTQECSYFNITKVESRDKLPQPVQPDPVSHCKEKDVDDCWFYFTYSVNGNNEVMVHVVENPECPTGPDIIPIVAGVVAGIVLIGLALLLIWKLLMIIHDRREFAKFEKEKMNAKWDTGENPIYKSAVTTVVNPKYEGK

“type I collagen (from UniProt P02452 162-1218; P08123 80-1119) (complex)” came in with an adhesion of mature megakaryocytes to hOSTs (day 18) after pre-incubation with 30 µg/mL anti-integrin alpha2 monoclonal antibody P1E6, against unrelated IgG of 30%.
